From paper PMC12207370, “Macrocyclic Peptide Probes for Immunomodulatory Protein CD59: Potent Modulators of Bacterial Toxin Activity and Antibody‐Dependent Cytotoxicity” (Angewandte Chemie (International Ed. in English), 2025)

Biological target: T1, biotinylated CD59 (Homo sapiens, UniProt P13987)
T1 construct: Recombinant soluble human CD59 with an additional C-terminal cysteine residue
T1 sequence (P13987 26-102 limits assumed): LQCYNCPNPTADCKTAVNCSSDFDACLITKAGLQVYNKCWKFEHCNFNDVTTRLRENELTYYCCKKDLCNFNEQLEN
Test: mRNA-display cyclic peptide screen against CD59-biotin, NGS abundance after 6th selection round
Conditions: for Percentage Seq I: counts normalised by total counts of sample Seq I; for Percentage Seq I / Percentage Seq II: percentage of the pool; for Percentage Seq I / Percentage Seq II / Percentage Average / Percentage of the pool, averaged across the two sequencing samples / Percentage of the pool, Seq I / Percentage of the pool, Seq II: sheet R6; for Percentage Seq II: counts normalised by total counts of sample Seq II; for Percentage Average: percentage of the pool averaged across the two sequencing samples; for Counts Seq I / Counts Seq II: raw NGS counts of peptide sequence; for Counts Seq I: sequencing sample Seq I; for Counts Seq I / Counts Seq II / Counts (raw counts for peptide sequence), Seq I / Counts (raw counts for peptide sequence), Seq II: sheet R6 (6th selection round); for Counts Seq II: sequencing sample Seq II; for Counts (raw counts for peptide sequence), Seq I: NGS sample Seq I; for Counts (raw counts for peptide sequence), Seq II: NGS sample Seq II; for Percentage of the pool, averaged across the two sequencing samples: average of Seq I and Seq II; for Percentage of the pool, Seq I: counts normalised by total counts of NGS sample Seq I; for Percentage of the pool, Seq II: counts normalised by total counts of NGS sample Seq II
From the text: To discover novel non‐protein CD59 ligands, we screened a library of 10^12 cyclic peptides against CD59 using mRNA‐display (Figure 2a).^[ [23], [24], [25], [26], [27], [28], [29] ^] Briefly, an mRNA library was designed in which the start codon was reprogrammed from Met to N‐chloroacetyl‐D‐Tyr (ClAc‐D‐Tyr), followed by 10–12 randomly encoded natural amino acids, a Cys residue, a (GlySer)3 linker, and a stop codon. […] The total library diversity was 1.51 × 10^13 molecules, comprising 5.02 × 10^12 molecules of each macrocycle size, covering a subset of the maximum theoretical diversity of this library design. Following in vitro translation, ClAc‐D‐Tyr spontaneously reacts with either the C‐terminal Cys or a Cys in the random region, yielding macrocyclic thioether peptides. Hits from the library were identified through iterative enrichment and amplification against biotinylated CD59, then immobilized on streptavidin beads. Fifteen hit sequences (CP‐01 to CP‐15), enriched with abundance >1% relative to the total pool of recovered binders after the 6th round of selection, were synthesized by solid phase peptide synthesis (SPPS), without the (Gly‐Ser)3 linker.
Figure 2 Discovery of macrocyclic peptide ligands with nanomolar CD59 affinity using mRNA display. a) The selection process. PCR = polymerase chain reaction, SPPS = solid phase peptide synthesis. b) Table showing details of the peptides with nanomolar affinity for CD59 as well as the binding affinity of the lead inhibitor of CD59, rILYd4. K D values are presented as the average of three technical replicates ± SEM. Structures of all peptides and SPR sensograms are presented in Figures S1 and S2. *indicates the presented sequences are the variable regions of these cyclic peptides; each is flanked by an N‐terminal Ac‐D‐Tyr cyclized to a C‐terminal Cys. R6 abundance (%) is defined as (the given number of NGS reads for a given sequence/the total number of reads of unique sequences observed in NGS)*100 following the 6th selection round. c) Representative sensogram of the interaction between CP‐06 with immobilized CD59 by SPR analysis. Inset showing the equilibrium binding curve of CP‐06 to CD‐59. Below in the box are the association and dissociation rate constants of CP‐06. Concentrations are plotted in descending order from 800‐3.1 nM in line with their position on the legend. […] (nM)'; the box with Kon/Koff has no label of its own / ILYd4: the label may be cut off at the left edge (possibly 'rILYd4') / CP-02, KD: 15.3 ± 0.2, small print, 3 or 8 uncertain / CP-03, KD: 23.4 ± 0.7, small print / CP-06, KD: 11.3 ± 0.0, small print, 3 or 8 uncertain / CP-13, KD: 10.8 ± 0.7, small print, 8 or 6 uncertain / ILYd4, KD: 48.3 ± 1.1, small print, 8 and 3 uncertain
The mRNA-display cyclic peptide screen was performed against CD59-biotin by T.E.M: DNA templates for transcription were generated by PCR in a similar manner to that previously described.^2 RNA oligonucleotides were transcribed from the DNA templates using T7 RNA polymerase and purified by phenol/chloroform extraction followed by ethanol precipitation. Oligonucleotide concentrations were determined spectroscopically by absorbance at 260 nm. In the first selection round a 1:1:1 molar ratio of NNK10/NNK11/NNK12 was used. The procedure for selection rounds 2-6 is described below; round 1 was conducted at twice the scale.
RNA encoding for the peptide library ligated to a puromycin-modified oligonucleotide was […] (final [RNA] = 2.5 µM) using a customised PURE express kit (lacking release factor 1 and methionine, supplemented with […] initiator tRNA acylated with N-chloroacetyl-d-tyrosine prepared as previously described)^3 in a final volume of 5.6 µL for 1 hour at 37 °C.
This mixture was incubated at 42 °C for 1 hour before being diluted to 500 µL with PBS (10 mM Na-PO4 pH 7.4, 2.7 mM KCl, 137 mM NaCl) and 0.5 µL taken for subsequent use in qPCR. […]

Sequence	Percentage Seq I	Percentage Seq II	Percentage Average	Counts Seq I	Counts Seq II	Counts (raw counts for peptide sequence), Seq I	Counts (raw counts for peptide sequence), Seq II	Percentage of the pool, averaged across the two sequencing samples	Percentage of the pool, Seq I	Percentage of the pool, Seq II
HCWVRGSRNYA	0.029%	0.028%	0.029%	128	12					
ASWLPSPCKFS						73	4	0.013%	0.017%	0.009%
CSAGRLTIDAV						37	6	0.011%	0.00846%	0.014%
CFAGRLTEGV	0.035%	0.044%	0.040%	155	19					
WATGSATFSSG	0.730%	0.673%	0.702%	3196	290					
YVYGSRDRC						74	5	0.014%	0.017%	0.012%
YVYGSRDRCWG	0.445%	0.441%	0.443%	1946	190					
CFAGRLTIDAV	2.645%	2.553%	2.599%	11574	1100					
SSWAQVPCYS	0.040%	0.032%	0.036%	175	14					
NSCPDWVRGSRT	0.229%	0.262%	0.246%	1002	113					
CYGGRTFIYTWS						74	4	0.013%	0.017%	0.009%
FTRGNSTSVLF						51	7	0.014%	0.012%	0.016%
CFTGRLTIDAV						26	6	0.010%	0.006%	0.014%
IIRGNRLTKYE	0.020%	0.026%	0.023%	86	11					
LKPNGRCLPKV	0.272%	0.283%	0.277%	1189	122					
HCRVRGSRNYT						38	6	0.011%	0.009%	0.014%
RIGTSTCPFKFS	0.024%	0.023%	0.024%	106	10					

Sequence	Percentage Seq I	Percentage Seq II	Percentage Average	Counts Seq I	Counts Seq II	Counts (raw counts for peptide sequence), Seq I	Counts (raw counts for peptide sequence), Seq II	Percentage of the pool, averaged across the two sequencing samples	Percentage of the pool, Seq I	Percentage of the pool, Seq II
VKYGNSNFVRE	0.047%	0.060%	0.054%	207	26					
GRYNECHFITS						59	6	0.014%	0.013%	0.014%
LQPPDRSCLPKI	0.029%	0.030%	0.029%	125	13					
CYGGRTFIYAWS	8.492%	8.097%	8.295%	37156	3489					
CFAGRLTIDAG						59	4	0.011%	0.013%	0.009%
VARGDWNHQFY						40	7	0.013%	0.009%	0.016%
YVRGDLYSVLG						40	5	0.010%	0.009%	0.012%
WSTGSSTFAAG	0.034%	0.042%	0.038%	149	18					
CFSHRRLEYGV	0.045%	0.046%	0.046%	197	20					
CFRFRLNATSS	0.075%	0.060%	0.068%	329	26					
CEALLRRGWD	0.094%	0.079%	0.087%	413	34					
FKYGNSNFVRG	0.035%	0.039%	0.037%	154	17					
CFRNRIDLIS						49	5	0.011%	0.011%	0.012%
FISGSRSWRKQ	0.036%	0.023%	0.030%	159	10					
QFAHRISSCAS	0.032%	0.030%	0.031%	139	13					
CYGGRTYIYAWS	0.018%	0.019%	0.018%	77	8					
CYGGRTFTYAWS	0.241%	0.306%	0.274%	1056	132					
